This is an account of results in US20040146507A1 (Genentech, published 2004).

“And” between values parts separate entries of the source, which are not always exact repeats. Equal values may be shown once.

For assay [1], the target named is T1, rhesus CD11a (rhesus, UniProt H9Z8N3 26-1169).
T1 construct: whole, on cells; On rhesus peripheral blood lymphocytes or leukocytes; also called rhCD11a
T1 sequence: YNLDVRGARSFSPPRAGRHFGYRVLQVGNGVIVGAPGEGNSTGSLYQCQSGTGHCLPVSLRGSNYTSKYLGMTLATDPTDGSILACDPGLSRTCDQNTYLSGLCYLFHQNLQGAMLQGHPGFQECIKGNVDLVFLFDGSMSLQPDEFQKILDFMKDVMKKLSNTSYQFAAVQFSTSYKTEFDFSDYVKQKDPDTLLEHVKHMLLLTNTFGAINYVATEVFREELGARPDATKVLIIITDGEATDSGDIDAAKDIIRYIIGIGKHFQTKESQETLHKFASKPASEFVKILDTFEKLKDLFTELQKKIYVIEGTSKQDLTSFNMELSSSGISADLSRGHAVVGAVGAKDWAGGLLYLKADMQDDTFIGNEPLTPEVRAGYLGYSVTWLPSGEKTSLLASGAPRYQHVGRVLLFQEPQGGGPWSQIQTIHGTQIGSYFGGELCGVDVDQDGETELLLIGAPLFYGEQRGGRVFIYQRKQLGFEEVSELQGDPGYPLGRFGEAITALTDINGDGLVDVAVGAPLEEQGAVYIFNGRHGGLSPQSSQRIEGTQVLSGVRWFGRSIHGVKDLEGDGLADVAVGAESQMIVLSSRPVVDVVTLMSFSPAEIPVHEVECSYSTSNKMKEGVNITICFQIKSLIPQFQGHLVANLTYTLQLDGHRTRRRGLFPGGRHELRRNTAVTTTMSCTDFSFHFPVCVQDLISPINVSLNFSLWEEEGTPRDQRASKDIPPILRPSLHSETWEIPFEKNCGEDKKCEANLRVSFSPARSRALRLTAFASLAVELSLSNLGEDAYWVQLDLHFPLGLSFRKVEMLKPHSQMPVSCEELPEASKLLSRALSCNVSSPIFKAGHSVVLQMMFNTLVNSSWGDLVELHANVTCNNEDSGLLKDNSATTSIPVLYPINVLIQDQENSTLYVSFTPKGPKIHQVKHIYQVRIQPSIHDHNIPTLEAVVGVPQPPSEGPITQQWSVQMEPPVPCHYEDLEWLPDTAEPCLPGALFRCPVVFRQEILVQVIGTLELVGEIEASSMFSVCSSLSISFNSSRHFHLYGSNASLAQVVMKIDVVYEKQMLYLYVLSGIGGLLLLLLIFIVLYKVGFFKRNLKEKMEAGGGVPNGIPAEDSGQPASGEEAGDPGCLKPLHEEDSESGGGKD
The assay is described as follows: rhesus PBL binding.

In assay [2] the target is T1, rhesus CD11a. As to the kind of experiment: saturation binding. On the procedure:
(§1) Antibody affinities were determined by saturation binding using either peripheral blood mononuclear cells (murine MHM24 and HuIgG1) or rhesus leukocytes (MHM23, RhIgG1). In each assay, a radiolabeled antibody was serially diluted in HBSS-0.2% gelatin in quadruplicate. Nonspecific binding was determined by the addition of 500 nM final concentration of homologous unlabeled antibody in duplicate through the serial dilution. Human lymphocytes or rhesus leukocytes were added to the plates in a volume of 170 μl per well. Plates were incubated for 2 hr at room temperature on an orbital plate shaker. After incubation, cells were harvested using a SKATRON™ cell harvester (Lier, Norway) and washed 10 times with PBS containing 0.25% gelatin and 0.1% sodium azide. Samples were then counted for 1 min in an LBK Wallac GammaMaster gamma counter (Gaithersburg, Md.). Data was transformed from counts per minute to nanomolarity and four-parameter curve-fitting of saturation plots (bound versus total) was then performed to determine Kd (app) values.

The target in assay [3] is T1, rhesus CD11a. The assay is described as follows: cell-based or functional assay.
In assay [4] the target is T2, rhesus-human chimeric CD11a (human (I-domain mutated to rhesus), UniProt P20701 26-1170).
T2 sequence (looked up): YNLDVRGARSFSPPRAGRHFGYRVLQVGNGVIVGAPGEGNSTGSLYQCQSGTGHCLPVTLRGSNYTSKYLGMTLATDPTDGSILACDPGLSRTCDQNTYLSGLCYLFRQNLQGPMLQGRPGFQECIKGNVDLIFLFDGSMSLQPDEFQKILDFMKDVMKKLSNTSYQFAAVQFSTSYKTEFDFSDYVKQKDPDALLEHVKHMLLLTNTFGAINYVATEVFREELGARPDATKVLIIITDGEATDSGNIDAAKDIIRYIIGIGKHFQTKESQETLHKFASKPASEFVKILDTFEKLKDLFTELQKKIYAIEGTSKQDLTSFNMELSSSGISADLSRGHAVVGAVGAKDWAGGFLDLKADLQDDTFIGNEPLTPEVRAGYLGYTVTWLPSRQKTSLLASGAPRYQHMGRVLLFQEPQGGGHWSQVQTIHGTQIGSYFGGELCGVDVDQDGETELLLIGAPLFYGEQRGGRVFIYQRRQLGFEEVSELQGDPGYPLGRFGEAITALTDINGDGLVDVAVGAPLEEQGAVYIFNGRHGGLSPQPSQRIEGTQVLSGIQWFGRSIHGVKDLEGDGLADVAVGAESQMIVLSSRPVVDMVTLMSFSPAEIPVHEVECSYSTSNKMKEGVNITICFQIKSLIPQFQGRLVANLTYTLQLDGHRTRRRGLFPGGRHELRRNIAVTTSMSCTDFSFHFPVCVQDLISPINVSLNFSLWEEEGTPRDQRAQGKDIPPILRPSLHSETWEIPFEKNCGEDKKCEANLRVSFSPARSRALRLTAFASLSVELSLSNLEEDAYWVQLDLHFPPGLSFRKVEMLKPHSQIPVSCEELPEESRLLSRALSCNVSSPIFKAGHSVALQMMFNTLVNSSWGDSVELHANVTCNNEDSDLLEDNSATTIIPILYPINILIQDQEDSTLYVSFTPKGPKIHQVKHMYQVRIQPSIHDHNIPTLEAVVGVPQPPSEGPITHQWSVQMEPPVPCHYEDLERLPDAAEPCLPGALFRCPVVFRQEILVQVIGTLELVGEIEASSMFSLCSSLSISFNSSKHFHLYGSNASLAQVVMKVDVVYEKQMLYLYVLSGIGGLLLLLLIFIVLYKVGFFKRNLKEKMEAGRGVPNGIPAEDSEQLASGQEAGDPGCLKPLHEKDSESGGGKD
The assay is described as follows: cell-based or functional assay.

For assay [5], the target named is T1, rhesus CD11a. As to the kind of experiment: rhesus PBL binding. The source holds these as a separate data set.
For assay [6], the target named is T1, rhesus CD11a. As to the kind of experiment: cell-based or functional assay. This is another data set of the same source.
Assay [7] deals with T2, rhesus-human chimeric CD11a. The assay is described as follows: cell-based or functional assay. This is another data set of the same source.
Assay [8] concerns the target T1, rhesus CD11a. As to the kind of experiment: cell-based or functional assay. The source holds these as a separate data set.
For assay [9], the target named is T1, rhesus CD11a. The assay is described as follows: saturation binding, rhesus leukocytes, donor 1; Kd(app). On the procedure:
(§2) Radiolabeled antibodies were prepared using Iodo-Gen (Pierce, Rockford, Ill.) according to the manufacturer's instructions. 50 μg of antibody and 1 mCi¹²⁵I (DuPont, Wilmington, Del.) were added to each tube and incubated for 15 min at 25° C. Radiolabeled proteins were purified from the remaining free ¹²⁵I using PD-10 columns (Pharmacia, Uppsala, Sweden) equilibrated in Hank's Balanced Salt Solution (HBSS, Life Technologies, Grand Island, N.Y.) containing 0.2% gelatin.
Leukocytes were purified from heparinized rhesus monkey peripheral blood collected from two individuals by Dextran sedimentation. Blood was diluted with an equal volume of 3% Dextran T500 (Pharmacia) in PBS and was allowed to sediment undisturbed at 25° C. for 30 min. After sedimentation, cells remaining in suspension were harvested and pelleted by centrifugation at 400×g for 5 min. Residual erythrocytes were removed by two cycles of hypotonic lysis using distilled water and 2×HBSS. […]
Antibody affinities were determined by saturation binding using either peripheral blood mononuclear cells (murine MHM24 and HuIgG1) or rhesus leukocytes (MHM23, RhIgG1). […] Nonspecific binding was determined by the addition of 500 nM final concentration of homologous unlabeled antibody in duplicate through the serial dilution. […] Samples were then counted for 1 min in an LBK Wallac GammaMaster gamma counter (Gaithersburg, Md.). […]

In assay [10] the target is T1, rhesus CD11a. The assay is described as follows: rhesus PBL binding; end of range assigned by the printed EC50s.
The target of assay [11] is T1, rhesus CD11a. As to the kind of experiment: saturation binding, rhesus leukocytes, donor 3, with 1 mg/ml human IgG1; Kd(app). On the procedure:
Leukocytes were purified from heparinized rhesus monkey peripheral blood collected from two individuals by Dextran sedimentation. Blood was diluted with an equal volume of 3% Dextran T500 (Pharmacia) in PBS and was allowed to sediment undisturbed at 25° C. for 30 min. After sedimentation, cells remaining in suspension were harvested and pelleted by centrifugation at 400×g for 5 min. Residual erythrocytes were removed by two cycles of hypotonic lysis using distilled water and 2×HBSS. After erythrocyte lysis, cells were washed in PBS and then resuspended in HBSS-0.2% gelatin.
as §1, with “After incubation, cells were harvested using a SKATRON™ cell harvester (Lier, Norway) and washed 10 times with PBS containing 0.25% gelatin and 0.1% sodium azide.” left out, “Data was transformed from counts per minute to nanomolarity and four-parameter curve-fitting of saturation plots (bound versus total) was then performed to determine Kd (app) values.” left out

The target of assay [12] is T3, human CD11a (human, UniProt P20701 26-1170). The assay is described as follows: cell-based or functional assay.
The target of assay [13] is T1, rhesus CD11a. As to the kind of experiment: binding to rhesus CD11a compared with human CD11a.
In assay [14] the target is T3, human CD11a. As to the kind of experiment: saturation binding, human lymphocytes, donor 1; Kd(app). On the procedure:
as §2
as §1, with “Data was transformed from counts per minute to nanomolarity and four-parameter curve-fitting of saturation plots (bound versus total) was then performed to determine Kd (app) values.” left out

Assay [15] concerns the target T3, human CD11a. As to the kind of experiment: saturation binding, human lymphocytes, donor 2; Kd(app). The method, then: as §2
as §1, with “Data was transformed from counts per minute to nanomolarity and four-parameter curve-fitting of saturation plots (bound versus total) was then performed to determine Kd (app) values.” left out

The target in assay [16] is T3, human CD11a. As to the kind of experiment: saturation binding, 125I-antibody, human lymphocytes; Kd(app). On the procedure:
as §2
as §1, with “Data was transformed from counts per minute to nanomolarity and four-parameter curve-fitting of saturation plots (bound versus total) was then performed to determine Kd (app) values.” left out

B1: rhesus-binding MHM24 IgG1 (antibody, V domains shown)
VH: EVQLVESGGGLVQPGGSLRLSCAASGYSFTGHWMNWVRQAPGKGLEWVGMIAPASSSTRYNQKFKDRFTISVDKSKNTLYLQMNSLRAEDTAVYYCARGIYFYGTTYFDYWGQGTLVTVSS
VL: DIQMTQSPSSLSASVGDRVTITCRASKTISKYLAWYQQKPGKAPKLLIYSGSTLQSGVPSRFSGSGSGTDFTLTISSLQPEDFATYYCQQHNEYPLTFGQGTKVEIKR
notes: HuIgG1 mutant (H52 Ala, H53 Ala, H54 Ser, H56 Ser); human IgG1; also called RhIgG1; H2C12
One may read the EC50 as the concentration giving half of the maximal effect. Consider B1, for which the midpoint of the response with rhesus CD11a [1], the EC50, lay at 0.19 nM. In the assay with rhesus CD11a [2], the “fold Kd against Kd of HuIgG1 for human CD11a” value is approximately 26 fold. Further, in the assay with rhesus CD11a [3], the “fold less efficacious than MHM23, RhLy: HuICAM adhesion” value is 4 fold and the “fold less efficacious than MHM23, RhLy: HuK adhesion” value came out at 74 fold. For the same molecule, the “fold down from MHM23, Rh/HuCD11a-293: HuK adhesion” value in assay [4] is 4 fold. In addition, the “Var.EC50/HuIgG1 EC50” value with rhesus CD11a [5] came out at 0.004 ratio. Moreover, in the assay with rhesus CD11a [6], the “IC50, blocking of cell adhesion, RhLy: HuICAM” value was found to be 5.3 nM and the “IC50, blocking of cell adhesion, RhLy: HuK” value is 119 nM. Further, in assay [7], the “IC50, blocking of cell adhesion, Rh/HuCD11a: HuK” value turned out to be 4.9 nM. Also, in the assay with rhesus CD11a [8], the “IC50, rhesus mixed lymphocyte response” value was found to be 23.4 nM. For the same molecule, the Kd with rhesus CD11a [9] stood at 3.9 nM. For the same molecule, in the assay with rhesus CD11a [10], the “fold improvement over EC50 of HuIgG1 for rhesus CD11a” value is 240 to 415 fold and the “fold weaker than EC50 of HuIgG1 for human CD11a” value lay in the range of 3 to 5 fold. For the same molecule, the Kd with rhesus CD11a [11] is 2.8 nM and 2.7 nM.

B2: murine MHM24 (antibody, V domains shown)
VH: EVQLQQPGAELMRPGASVKLSCKASGYSFTGHWMNWVRQRPGQGLEWIGMIHPSDSETRLNQKFKDKATLTVDKSSSSAYMQLSSPTSEDSAVYYCARGIYFYGTTYFDYWGQGTTLTVSS
VL: DVQITQSPSYLAASPGETISINCRASKTISKYLAWYQEKPGKTNKLLIYSGSTLQSGIPSRFSGSGSGTDFTLTISSLEPEDFAMYYCQQHNEYPLTFGTGTKLELKR
notes: Murine anti-human CD11a monoclonal antibody; also called muMHM24; murMHM24
Turning to B2, in the assay with human CD11a [12], the “IC50, blocking of cell adhesion, Jurkat: HuK” value came to 0.09 nM. Further, in the assay with rhesus CD11a [13], the “fold reduction in binding against human CD11a” value is approximately 1000 fold. For the same molecule, the Kd turned out to be 0.16 nM in the assay with human CD11a [14], 0.13 nM in the assay with human CD11a [15] and 0.15 nM with human CD11a [16].
